In patent US20180022781A1 (INSERM INSTITUT NATIONAL DE LA SANTE ET DE LA RECHERCHE …, published 2018):
Substitutions are numbered along the chain they refer to.

B1: Ty1 integrase with S621 modified in A, expressed from a mutant Ty1 element (protein)
chain: NVHTSESTRKYPYPFIHRMLAHANAQTIRYSLKNNTITYFNESDVDWSSAIDYQCPDCLIGKSTKHRHIKGSRLKYQNSYEPFQYLHTDIFGPVHNLPNSAPSYFISFTDETTKFRWVYPLHDRREDSILDVFTTILAFIKNQFQASVLVIQMDRGSEYTNRTLHKFLEKNGITPCYTTTADSRAHGVAERLNRTLLDDCRTQLQCSGLPNHLWFSAIEFSTIVRNSLASPKSKKSARQHAGLAGLDISTLLPFGQPVIVNDHNPNSKIHPRGIPGYALHPSRNSYGYIIYLPSLKKTVDTTNYVILQGKESRLDQFNYDALTFDEDLNRLTASYHSFIASNEIQESNDLNIESDHDFQSDIELHPEQPRNVLSKAVSPTDSTPPSTHTEDSKRVSKTNIRAPREVDPNISESNILPSKKRSSTPQISNIESTGSGGMHKLNVPLLAPMSQSNTHESSHASKSKDFRHSDSYSENETNHTNVPISSTGGTNNKTVPQISDQETEKRIIHRSPSIDASPPENNSSHNIVPIKTPTTVSEQNTEESIIADLPLPDLPPESPTEFPDPFKELPPINSRQTNSSLGGIGDSNAYTTINSKKRSLEDNETEIKVSRDTWNTKNMRALEPPRSKKRIHLIA
B2: Ty1 integrase with R619 [read as R620] modified in A, expressed from a mutant Ty1his3AI element (protein)
chain: B1 chain with R620A, A621S
B3: Ty1 integrase (IN) expressed from a functional Ty1 element (protein)
chain: B1 chain with A621S
B4: Ty1 integrase with L622 modified in A, expressed from a mutant Ty1 element (protein)
chain: B1 chain with A621S, L622A
B5: Ty1 integrase with K617 modified in A, expressed from a mutant Ty1 element (protein)
chain: B1 chain with K617A, A621S
B6: Ty1 integrase with M619 modified in A, expressed from a mutant Ty1 element (protein)
chain: B1 chain with M619A, A621S
B7: S. pombe AC40 (AC40sp) fused to Gal4 binding domain (GBD-AC40sp) (other, UniProt P04386 1-147, looked up)
chain: MKLLSSIEQACDICRLKKLKCSKEKPKCAKCLKNNWECRYSPKTKRSPLTRAHLTEVESRLERLEQLFLLIFPREDLDMILKMDSLQDIKALLTGLFVQDNVNKDAVTDRLASVETDMPLTLRQHRISATSSSEESSNKGQRQLTVSMAAVDRSRTEISVLSDRVTDVGSVDFPGYYFDEDNIWDLDKFKKNLKVSITSLDQETMVFEISGIDASIANAFRRILIAEIPTLAFEFVYIINNTSIIQDEVLSHRIGLVPISADPDMFKWFQHPLPGQEATHTDYDTVVFSLNKKCEFNKNAATDEKDPKRLYVNSEVYSGDLIWKPQGRQEERFADNPIRVVNPDIVVAKLRPGQEIDLEAHAILGIGQDHAKFSPVATASYRLLPTIHILSPIEGEDAVKFQKCFPKGVIELEEGPDGKKQARVADVRKDTVSRECLRHPEFADKVQLGRVRDHYLFSVESTGIMKPDVLFIKSIAVLKSKCLAVKSSLQNISSD

What was measured:
[1] = molecular target: S. pombe AC40 (AC40sp) (Schizosaccharomyces pombe) (UniProt O94616); assay: cell-based or functional assay
[2] = molecular target: AC40 subunit of RNA polymerase III, P07703
Chain of AC40 subunit of RNA polymerase III, P07703 (P07703 whole entry, looked up, tested part not stated): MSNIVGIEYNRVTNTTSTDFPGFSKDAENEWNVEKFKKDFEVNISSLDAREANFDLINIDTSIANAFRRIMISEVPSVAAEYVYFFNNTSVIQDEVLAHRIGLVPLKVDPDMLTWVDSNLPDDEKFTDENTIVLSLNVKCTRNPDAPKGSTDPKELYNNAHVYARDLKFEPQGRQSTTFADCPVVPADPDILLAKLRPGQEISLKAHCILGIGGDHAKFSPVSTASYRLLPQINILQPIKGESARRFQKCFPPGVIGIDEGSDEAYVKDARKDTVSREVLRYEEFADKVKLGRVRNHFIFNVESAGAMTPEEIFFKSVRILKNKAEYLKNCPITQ

[3] = molecular target: S. pombe AC40 (AC40sp), O94616
[4] = molecular target: T1, full-length Ty1 IN (IN1-635) fused to Gal4 activating domain (Saccharomyces cerevisiae, UniProt P0C2I7 583-1217); assay: yeast two-hybrid
T1 construct: the residue numbers of the constructs agree with it
T1 sequence: B1 chain with A621S
Excerpt: (A) Two-hybrid interaction between different domains of Ty1-IN and AC40 or AC40sp. Left, Ty1 structure. Two open reading frames, GAG and POL (historically TYA and TYB), are flanked by two LTRs (black triangles). Protease (PR), integrase (IN), reverse transcriptase-RNAse H (RT/RH). The left-right arrow indicates Ty1 sequences recovered in the two-hybrid screen (2-HS) with AC40 as bait (coordinates 2706-4342 in Ty1). Ty1-IN regions fused to Gal4 activating domain (GAD) are depicted. Right, serial 10-fold dilutions of liquid cultures of cells expressing AC40 or AC40sp fused to Gal4 binding domain (GBD) and the various GAD-IN proteins were plated onto non-selective (Control) or selective (Interaction) media to detect interactions. (B) Co-immunoprecipitation of AC40 and IN-Strep. A 6×HA epitope was inserted at the end of the endogenous RPC40 gene (AC40-HA) and IN was fused with streptavidine (IN-Strep) and expressed from a galactose inducible promoter. Immunoprecipitation of protein extracts was performed with anti-HA magnetic beads coupled to IgG. […] (C) Co-immunoprecipitation of AC40 and IN expressed from a galactose inducible functional Ty1 element. Immunoprecipitation conditions are as in FIG. 3B.

Molecule	PCR detection of Ty1 insertion events upstream of tG(GCC)C [2]	relative frequency of Ty1his3AI retrotransposition [2]	other results
Ty1 integrase (IN) expressed from a functional Ty1 element (from UniProt P0C2I7 583-1217) (enzyme)			fraction of 5FOA^R cells arising from Ty1 integration [1]: 30 fold lower
B1	Ty1 integration upstream of a Pol III genes is severely affected in Ty1 mutants carrying mutations that abolish IN/AC40 interaction	Ty1 overall mobility decreases no more than two-fold in Ty1 mutants carrying mutations that abolish IN/AC40 interaction	
B2		Ty1 overall mobility decreases no more than two-fold in Ty1 mutants carrying mutations that abolish IN/AC40 interaction	
B3			PCR pattern of Ty1 insertions upstream of tG(GCC)C [3]: In cultures expressing AC40sp, the pattern was dramatically altered, showing both a significant decrease in Ty1 integration and an apparent relaxed periodicity between hotspots; frequency of IN-dependent Ty1HIS3 integration in a rad52Δ mutant [3]: the frequency of IN-dependent integration is 2-fold lower in AC40sp cells compared to AC40 cells; genome-wide Ty1 integration profile [3]: the loss-of-interaction mutant displayed a fundamentally different profile with only a slight bias to integrate near tRNA genes
B4	Ty1 integration upstream of a Pol III genes is severely affected in Ty1 mutants carrying mutations that abolish IN/AC40 interaction	Ty1 overall mobility decreases no more than two-fold in Ty1 mutants carrying mutations that abolish IN/AC40 interaction	
B5	The loss of this pattern was also obtained in mutants of Ty1 in which either of the K617 or M619 residues where modified in A (alanine)	Ty1 overall mobility decreases no more than two-fold in Ty1 mutants carrying mutations that abolish IN/AC40 interaction	
B6	The loss of this pattern was also obtained in mutants of Ty1 in which either of the K617 or M619 residues where modified in A (alanine)	Ty1 overall mobility decreases no more than two-fold in Ty1 mutants carrying mutations that abolish IN/AC40 interaction	
B7			binding result [4]: no binding
